Measured values from patent US20180346600.
Changes are numbered by the printed parent chain. In names and notes the source's numbering stands.

Columns and labels:
Test in all cases: HEK293-F co-expression, Protein A purification, non-reducing SDS-PAGE densitometry
[1] = molecular target: FcCH3B, A205 (E357N/K370R)
[2] = molecular target: T1, FcCH3B, B240 (D399G/K392G/K409M)
T1 chain: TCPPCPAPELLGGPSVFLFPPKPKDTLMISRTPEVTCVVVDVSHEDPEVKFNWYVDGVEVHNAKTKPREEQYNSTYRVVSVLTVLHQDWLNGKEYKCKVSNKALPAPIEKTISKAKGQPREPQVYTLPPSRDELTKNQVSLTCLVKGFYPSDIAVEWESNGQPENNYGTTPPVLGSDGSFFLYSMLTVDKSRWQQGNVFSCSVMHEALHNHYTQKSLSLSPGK

[3] = molecular target: FcCH3B, A210 (E357N/K370H)
FcCH3B, A216 (E357N) = molecular target: FcCH3B, A216 (E357N)
[4] = molecular target: T2, FcCH3B, B215 (D399W/K392G/K409M)
T2 chain: T1 chain with G175W

FcCH3B, A241 (E357N) = molecular target: FcCH3B, A241 (E357N)

B1: scFv-FcCH3A, A205 (E357D/S364W/K370E) (protein)
chain: T1 chain with E133D, S140W, K146E, G168K, G175D, M185K
Protein B1 has a (scFv-Fc)(Fc) (heterodimer)(%) [1] of 88.8%.

B2: scFv-FcCH3A, B240 (K392S/K409R/D399L) (protein)
chain: T1 chain with G168S, G175L, M185R
Work on B2 yielded a (scFv-Fc)(Fc) (heterodimer)(%) [2] of 83.3%.

B3: scFv-FcCH3A, A210 (E357A/S364Y/K370E) (protein)
chain: T1 chain with E133A, S140Y, K146E, G168K, G175D, M185K
B3 was tested, and the (scFv-Fc)(Fc) (heterodimer)(%) [3] was 80.8%.

B4: scFv-FcCH3A, A216 (E357G/S364W/K370E) (protein)
chain: T1 chain with E133G, S140W, K146E, G168K, G175D, M185K
For B4, the (scFv-Fc)(Fc) (heterodimer)(%) (FcCH3B, A216 (E357N)) was 80.3%.

B5: scFv-FcCH3A, B215 (K392R/K409R/D399L) (protein)
chain: T1 chain with G168R, G175L, M185R
In the case of B5, the (scFv-Fc)(Fc) (heterodimer)(%) [4] is reported as 78.1%.

B6: scFv-FcCH3A, A241 (E357N/S364W/K370E) (protein)
chain: T1 chain with E133N, S140W, K146E, G168K, G175D, M185K
B6 showed a (scFv-Fc)(Fc) (heterodimer)(%) (FcCH3B, A241 (E357N)) of 81%.
